This is an account of results in article PMC10936776, “Structural and functional characterization of AfsR, an SARP family transcriptional activator of antibiotic biosynthesis in Streptomyces” (PLOS Biology, 2024).

The chains are these.
B1: Streptomyces coelicolor RNA polymerase α subunit (natural protein, S. coelicolor)
chain: MLIAQRPSLTEEVVDEFRSRFVIEPLEPGFGYTLGNSLRRTLLSSIPGAAVTSIRIDGVLHEFTTVPGVKEDVTDLILNIKQLVVSSEHDEPVVMYLRKQGPGLVTAADIAPPAGVEVHNPDLVLATLNGKGKLEMELTVERGRGYVSAVQNKQVGQEIGRIPVDSIYSPVLKVTYKVEATRVEQRTDFDKLIVDVETKQAMRPRDAMASAGKTLVELFGLARELNIDAEGIDMGPSPTDAALAADLALPIEELELTVRSYNCLKREGIHSVGELVARSEADLLDIRNFGAKSIDEVKAKLAGMGLALKDSPPGFDPTAAADAFGADDDADAGFVETEQY
notes: RNA polymerase subunit alpha, S. coelicolor; Stood in the assay as a subunit of the RNAP core in the holoenzyme; density for one αCTD is seen; also called αCTD (C-terminal domain of the α subunit); source: S. coelicolor RNAP purified as described previously [37]
B2: AfsR (dephosphorylated AfsR) (Streptomyces coelicolor A3(2)) (protein)
chain: MDGGPRVPEQRRPGFPAEEEESGALRFGVLGPVRAWRDGETLATGSPQQRALLAALLLREGRTATAGELIDALWGEEPPSQALAAVRTYASRLRKVLDPGVLVSESGGYAVRGLAEGALDLARAQDLASAAEKARSAGDLCHARDLLRRALDLWDGEVLAGVPGPYAQTQRVRLGEWRLQLLETRLDMDLDQGCHAEAVSELTALTAAHPLRERLRELLMLALYRSGRQAEALAVYADTRRLLADELGVDPRPGLQELQQRILQADPALAELSAATAETATATLRPAQLPATVSDFTGRAAFVRELSDVLSAASGESASGRVMAVSALAGIGGVGKTTLAVHVAHRARAAFPDGQLYVDLQGAGARPAEPETVLGSFLRALGTADSAIPDSLEERAALYRSVLDGRRVLVLLDNARDAAQVRPLLPGTDGCAALVTARVRMVDLAGAHLVDLDVMAPEEALALFTKIVGEERVASERQAALDVVGACGFLPLAIRIAASRLAARRTWTVSVLAAKLADERRRLDELQAGDQAVEATFELGYGQLEPAQARAFRLLGLADGPDISLAAAAAVLDLPAQDTEDLLESLVDTSLLESAAPGRYRFHDLVRLYARACAERTERDGNAPSERGAALSRLLDFYLATAAGVYAIERPGDRLVDGLEPTEYPGLTFTEGSAALDWLYTEAAPLLACVRQSAGTARLRRAVDLLWAAKDLTESGANSHQYEATARAMCDATGSAADTRAEGRARTVLSDVLLVSGRIEHAEEEARLAMRLAGSAEDSAAVSWVANNRGLVCLHQRRYAEGKGLFHQAIAGFRATDNRAGEASALSNLSRAQLGMGNVAEAVDIARQGLAVYAELGRTMRLANGHFALGVALTRAGRHEEALGEFAEALDLFGDHRQRLWEGATNFRLAEVHLAAGRPSSAAQHAEQALALGCIGGDRMRGNVLALLGRALSALGQADRARACWREALSLYEQHDAQEVGEVRALLARSVAR
notes: full-length, 993 residues, pET28a (His-tagged), E. coli BL21(DE3), Ni-NTA and SEC; wild type treated with lambda phosphatase (E. coli protein carries pT337); mainly monomer
B3: AfsR 4E mutant (S391E/T337E/T506E/S953E) (natural protein, S. coelicolor, UniProt P25941 1-993, looked up)
chain: B2 chain with T337E, S391E, T506E, S953E
notes: AfsR, S. coelicolor, with glutamate substitutions at all 4 phosphorylation sites of NOD and TPR; Likely made like wild-type AfsR (pET28a, E. coli BL21(DE3))
B4: AfsR T337A mutant (natural protein, S. coelicolor, UniProt P25941 1-993, looked up)
chain: B2 chain with T337A
notes: AfsR, S. coelicolor, full-length protein with T337A; Preincubated with afsS promoter DNA and 1 mM ATPγS for AfsR-TIC; Vector and host of the mutant are surmised from the wild type
B5: phosphorylated AfsR (phos-AfsR) (Streptomyces coelicolor A3(2)) (protein)
chain: B2 chain
notes: full-length, 993 residues, pET28a (His-tagged), E. coli BL21(DE3); dephosphorylated, then phosphorylated in vitro by AfsKΔC (pS22, pT337, pS391, pT506, pS953 by MS), SEC
B6: Streptomyces coelicolor RNA polymerase sigma factor σ^HrdB (natural protein, S. coelicolor)
chain: MSASTSRTLPPEIAESVSVMALIERGKAEGQIAGDDVRRAFEADQIPATQWKNVLRSLNQILEEEGVTLMVSAAEPKRTRKSVAAKSPAKRTATKAVAAKPVTSRKATAPAAPAAPATEPAAVEEEAPAKKAAAKKTTAKKATAKKTTAKKAAAKKTTAKKEDGELLEDEATEEPKAATEEPEGTENAGFVLSDEDEDDAPAQQVAAAGATADPVKDYLKQIGKVPLLNAEQEVELAKRIEAGLFAEDKLANSDKLAPKLKRELEIIAEDGRRAKNHLLEANLRLVVSLAKRYTGRGMLFLDLIQEGNLGLIRAVEKFDYTKGYKFSTYATWWIRQAITRAMADQARTIRIPVHMVEVINKLARVQRQMLQDLGREPTPEELAKELDMTPEKVIEVQKYGREPISLHTPLGEDGDSEFGDLIEDSEAVVPADAVSFTLLQEQLHSVLDTLSEREAGVVSMRFGLTDGQPKTLDEIGKVYGVTRERIRQIESKTMSKLRHPSRSQVLRDYLD
notes: principal sigma factor HrdB, S. coelicolor; region 1.1 disordered in the map; Stood in the assay as part of the RNAP σ^HrdB-holoenzyme; also called σ subunit; σ R4 (region 4); source: purified as described previously [37]

The target in data set [1] is T1, AfsR (dephosphorylated AfsR) (Streptomyces coelicolor, UniProt P25941).
T1 construct: full-length, 993 residues, pET28a (His-tagged), E. coli BL21(DE3), Ni-NTA and SEC; wild type treated with lambda phosphatase (E. coli protein carries pT337); mainly monomer
Nature of the data set: in vitro MangoIII transcription assay after preincubation. The data set is classed as biochemical. As to conditions: 500 nM dephosphorylated AfsR, 1 mM GTP preincubation 10 min 30 °C, RNAP-σHrdB, RbpA, CarD; activator.

The data set “AfsR T337A mutant” deals with B4. The data set is described as follows: cryo-EM structure; AfsR_(T337A)-TIC: 32 uM AfsR_(T337A) preincubated with 5 uM afsS promoter DNA and 1 mM ATPγS, mixed with RNAP core, σ^HrdB, CarD, RbpA; assembling buffer; Superose 6; nominal resolution 3.63 Å, SARP region 5.10 Å. As to conditions: both partners purified.
Substrate in data set [2]: Nc1ncnc2c1ncn2[C@@H]1O[C@H](COP(=O)(O)OP(=O)(O)OP(=O)(O)O)[C@@H](O)[C@H]1O
Nature of the data set: Malachite green phosphate ATPase assay. The data set is classed as biochemical, Streptomyces coelicolor. The note with it: 5 μM protein, 20 mM Tris-HCl pH 7.5, 150 mM NaCl, 5 mM MgCl2, 30 min.

Data set [3] concerns the molecule itself. The data set is described as follows: SEC; Superdex 200; 20 mM Tris pH 8.0, 150 mM NaCl, 5% glycerol; protein alone, without DNA. In general terms: In gel filtration, larger molecules generally elute earlier.
Data set [4] concerns the molecule itself. The data set is described as follows: cryo-EM structure; AfsR_(T337A)-TIC: 32 uM AfsR_(T337A) preincubated with 5 uM afsS promoter DNA and 1 mM ATPγS, mixed with RNAP core, σ^HrdB, CarD, RbpA; assembling buffer; Superose 6; nominal resolution 3.63 Å, SARP region 5.10 Å.
Data set [5] deals with T2, Streptomyces coelicolor RNA polymerase β subunit (S. coelicolor, UniProt Q9L0L0 1-1161).
T2 construct: RNA polymerase subunit beta, S. coelicolor; Stood in the assay as a subunit of the RNAP core in the holoenzyme; also called RNAP β; β flap; source: S. coelicolor RNAP purified as described previously [37]
The description is as above. As to conditions: both partners purified.

Data set [6] has as its target T3, Streptomyces coelicolor RNA polymerase β′ subunit (S. coelicolor, UniProt Q8CJT1 1-1299).
T3 construct: RNA polymerase subunit beta', S. coelicolor; Stood in the assay as a subunit of the RNAP core in the holoenzyme; also called RNAP β′; β′ ZBD; source: S. coelicolor RNAP purified as described previously [37]
The data set is described as above. The note with it: both partners purified.

Where [7] appears, read: phosphomimetic 4E mutant, phosphatase treatment not stated.

Substitutions are numbered along the chain they refer to. In names and notes the source's numbering stands.

On to `Nc1nc2c(ncn2[C@@H]2O[C@H](COP(=O)(O)OP(=O)(O)OP(=O)(O)O)[C@@H](O)[C@H]2O)c(=O)[nH]1` [GTP], for which the transcription activation result in data set [1] was “preincubating dephosphorylated AfsR with ATP or GTP significantly enhances its transcription activation”.

As to B1, the binding result with AfsR T337A mutant is “binds”.

The Km is the concentration of substrate that gives half-maximal velocity. As a reminder, the kcat is the maximal rate divided by the concentration of active sites. As for B2, in data set [2] (dephosphorylated), the Km is recorded as 1.16 ± 0.231 mM and the kcat is 0.0453 ± 0.00356 s⁻¹.

Regarding B3, in data set [3], the binding result was “binds”. For the same molecule, in data set [2] (setting [7]), the Km was determined as 0.995 ± 0.152 mM and the kcat came to 0.147 ± 0.00841 s⁻¹.

For the molecule B4, the binding result in data set [4], in data set [5] and in data set [6] was “binds” throughout.

Consider B5, for which, in data set [2] (phosphorylated by AfsKΔC), the Km was found to be 0.767 ± 0.163 mM and the kcat was determined as 0.070 ± 0.00515 s⁻¹.

On to B6, for which the binding result in the data set with AfsR T337A mutant is “binds”.
